Results: doi:10.1101/2020.08.27.270058

T1: MglB (Myxococcus xanthus), Q1DB03
T1 chain: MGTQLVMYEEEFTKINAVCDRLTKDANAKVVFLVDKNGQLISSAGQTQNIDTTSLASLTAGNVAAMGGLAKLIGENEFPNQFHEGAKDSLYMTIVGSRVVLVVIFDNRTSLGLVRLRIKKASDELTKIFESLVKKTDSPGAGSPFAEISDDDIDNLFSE


Experiments:
[1] = target: MglB (Myxococcus xanthus) (UniProt Q1DB03); assay: ITC
[2] = target: MglB (Myxococcus xanthus) (UniProt Q1DB03); assay: SEC
[3] = target: MglC (Myxococcus xanthus); assay: SEC
[4] = target: MglB (Myxococcus xanthus) (UniProt Q1DB03); assay: SAXS
[5] = target: MglC (Myxococcus xanthus); assay: SAXS
[6] = target: T1, MglB (Myxococcus xanthus), Q1DB03; assay: SEC; conditions: remark: other sources report otherwise
[7] = target: T1, MglB (Myxococcus xanthus), Q1DB03; assay: SAXS; conditions: remark: other sources report otherwise

Row | Molecule | Kd [1] [µM] | dH [1] [kJ/mol] | stoichiometry N [1] | stoichiometry N (MglC:MglB (2:4)) [2] | stoichiometry N [3] | stoichiometry N (MglC:MglB (2:4)) [4] | stoichiometry N [5] | stoichiometry N [6] | stoichiometry N [7]
1 | MglC (natural protein) | 0.625 | 29.1 | 0.5 | 0.5 | 2 | 0.5 | 2 |  | 
2 | MglB, Q1DB03 1-159 (natural protein) MGTQLVMYEEEFTKINAVCDRLTKDANAKVVFLVDKNGQLISSAGQTQNIDTTSLASLTAGNVAAMGGLAKLIGENEFPNQFHEGAKDSLYMTIVGSRVVLVVIFDNRTSLGLVRLRIKKASDELTKIFESLVKKTDSPGAGSPFAEISDDDIDNLFSE |  |  |  |  |  |  |  | 2 | 2
